Experimental data taken from article PMC5687670, “hYSK1 promotes cancer cell proliferation and migration through negative regulation of p16^INK4a under hypoxic conditions” (Oncotarget, 2017).

Molecular target: T1, hYSK1 on the ProtoArray Human Protein Microarray (human, UniProt O00506 1-426)
T1 construct: hYSK1, human Ste20 family serine/threonine protein kinase; one of 1,800 recombinant human proteins on the array; also called human analog of YSK1; source: bought: ProtoArray Human Protein Microarray (v.1.0), recombinant human protein printed on nitrocellulose slide
T1 sequence (O00506 whole entry): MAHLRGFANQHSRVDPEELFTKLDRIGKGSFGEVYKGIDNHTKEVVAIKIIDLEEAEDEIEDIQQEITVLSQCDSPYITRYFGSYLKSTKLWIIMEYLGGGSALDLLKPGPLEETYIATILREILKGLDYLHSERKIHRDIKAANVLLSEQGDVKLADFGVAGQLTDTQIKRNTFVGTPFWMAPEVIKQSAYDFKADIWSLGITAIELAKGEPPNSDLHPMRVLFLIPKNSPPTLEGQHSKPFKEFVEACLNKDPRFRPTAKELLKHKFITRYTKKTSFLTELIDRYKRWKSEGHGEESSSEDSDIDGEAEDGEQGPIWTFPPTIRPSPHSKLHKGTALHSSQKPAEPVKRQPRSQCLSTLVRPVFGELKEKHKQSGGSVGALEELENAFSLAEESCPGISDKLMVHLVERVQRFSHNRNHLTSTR
Assay: peptide or protein array; ProtoArray Human Protein Microarray (v.1.0), 1,800 recombinant human proteins on nitrocellulose slides, blocked and probed with biotin-labeled p16^INK4a; detected with streptavidin-Alexa Fluor 647
Details: both partners purified

binding result: binds
B1: biotin-labeled p16^INK4a (natural protein, UniProt P42771 1-156, looked up)
chain: MEPAAGSSMEPSADWLATAAARGRVEEVRALLEAGALPNAPNSYGRRPIQVMMMGSARVAELLLLHGAEPNCADPATLTRPVHDAAREGFLDTLVVLHRAGARLDVRDAWGRLPVDLAEELGHRDVARYLRAAAGGTRGSNHARIDAAEGPSDIPD
modifications: biotin (biotinylated; site not stated)
notes: probe for the protein microarray
